{"source": "paper PMC8880779", "about": "(International Journal of Molecular Sciences, 2022)", "origin": "cited, not measured here", "molecules": {"B1": {"name": "CaM-like skin protein: present at concentrations ranging between 3 and 6 nM in the human cerebrospinal fluid (protein, UniProt Q9NZT1 2-146, looked up)", "Calmodulin-like protein 5": "AGELTPEEEAQYKKAFSAVDTDGNGTINAQELGAALKATGKNLSEAQLRKLISEVDSDGDGEISFQEFLTAAKKARAGLEDLQVAFRAFDQDGDGHITVDELRRAMAGLGQPLPQEELDAMIREADVDQDGRVNYEEFARMLAQE"}}, "key": {"[1]": {"test_system": "mouse model of AD", "design": "method as in PMID 29164613"}, "[2]": {"test_system": "cell-based AD model", "design": "method as in PMID 23519124"}}}
{"molecule": "B1", "values": [{"measurement": "protection against spatial learning impairment", "setting": "[1]", "result": "affords efficient protection against spatial learning impairment"}, {"measurement": "inhibition of neuronal death", "setting": "[2]", "result": "inhibits neuronal death in a cell-based AD model"}]}
